From patent publication US5945288

System: PmeI restriction endonuclease (Pseudomonas mendocina)
Assay: cleavage_in_vitro
Details: column fractions assayed on lambda DNA

bacteriophage lambda DNA showed an activity (units (total purified)) of 116000.
